Where no end group is shown, it is not given here. [ ]: non-standard residue; d: D form. pGlu = O=C1CC[C@@H](C(=O)O)N1
B1: monoclonal antibody 5C9 (antibody, V domains shown)
VH: QIQLQQSGPELVKPGAAVKISCKASGYTFTDYYLNWVKQKPGQGLEWIGWIYPGSGNVKYNEKFKGKATLTADTSSNTAHMQLSSLTSEDTAVYFCTREGLIVYWGQGTLVTVSA
VL: DVVLTQTPFTLSVTIGQPASISCKSSQSLLHSNGESYLNWLFQRPGQSPKRLIYAVSKLDSGVPDRFTGSGSGTDFTLKISRVEAEDLGVYYCVQGTHFPFTFGGGTKLEIK
B2: monoclonal antibody 2E8 (antibody, V domains shown)
VH: QIQLQQSGPDLVKPGASVKISCKASGYTFTDYYINWVKQKPGQGLEWIGWLNPGSGNTKYNEKFKGKATMTVDTTSSTVYMQLSSLTSEDSAVYFCTREGPIDYWGRGTSVTVSS
VL: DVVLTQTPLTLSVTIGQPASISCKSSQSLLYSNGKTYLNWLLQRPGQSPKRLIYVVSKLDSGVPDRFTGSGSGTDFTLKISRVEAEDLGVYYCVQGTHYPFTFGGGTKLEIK

Key:
[1] = target: T1, pyroglutamated human Aβ3-11 with the addition of a C-terminal cysteine residue, pE-FRHDSGYE-C (not fully specified); assay: Biacore SPR; overall KD
T1 peptide: [pGlu]FRHDSGYEC

[2] = target: T1, pyroglutamated human Aβ3-11 with the …; assay: Biacore SPR; KD1 (first binding step)

Binder	Kd [1]	Kd [2]
B1	8.2 nM	0.116 nM
B2	64 nM	3.46 nM

From patent US20170022268A1 (published 2017)
